Test results taken from the Immune Epitope Database (IEDB).
Each block holds one sequence with its values, some of them ahead of it.

What was measured:
HLA-B*58:01 [1] = assay: IEDB peptide-MHC binding, purified MHC/competitive/radioactivity; filed as Kd, often an IC50 or EC50 that approximates it; ≥ and ≤ were set here for values at or beyond the usual limits of such assays
HLA-B*44:02 [2] = assay: as above; details: source organism: Dengue virus 1 Brazil/97-11/1997
HLA-A*11:01 = assay: IEDB peptide-MHC binding, purified MHC/direct/fluorescence; filed as Kd, often an IC50 or EC50 that approximates it; ≥ and ≤ were set here for values at or beyond the usual limits of such assays
HLA-B*27:05 = assay: as above
HLA-B*07:02 = assay: as above
HLA-B*08:01 = assay: as above
HLA-B*58:01 [3] = assay: as above
HLA-A*24:03 [4] = assay: as above
HLA-A*31:01 = assay: as above
HLA-B*40:01 = assay: as above
HLA-B*44:02 [5] = assay: as above
HLA-A*01:01 = assay: as above
HLA-B*35:01 = assay: as above; details: source organism: Escherichia coli O157:H7
HLA-A*30:01 = assay: as above
HLA-A*26:01 [6] = assay: as above
HLA-A*03:01 [7] = assay: as above
HLA-A*02:01 = assay: as above
HLA-B*15:01 [8] = assay: as above
HLA-A*69:01 [9] = assay: as above
HLA-B*18:01 [10] = assay: as above; details: source organism: West Nile virus
HLA-B*48:01 = assay: as above; details: source organism: West Nile virus
HLA-B*57:01 [11] = assay: as above; details: source organism: West Nile virus
HLA-B*46:01 [12] = assay: as above; details: source organism: West Nile virus
HLA-B*39:01 = assay: IEDB peptide-MHC binding, purified MHC/competitive/fluorescence; filed as Kd, often an IC50 or EC50 that approximates it; ≥ and ≤ were set here for values at or beyond the usual limits of such assays
HLA-A*26:01 [13] = assay: as above
HLA-B*15:17 = assay: as above; details: source organism: Mycobacterium tuberculosis variant bovis BCG str. Pasteur 1173P2
HLA-B*51:01 = assay: as above; details: source organism: Mycobacterium tuberculosis variant bovis BCG str. Pasteur 1173P2
HLA-B*18:01 [14] = assay: as above; details: source organism: Mycobacterium tuberculosis variant bovis BCG str. Pasteur 1173P2
HLA-A*68:02 = assay: as above; details: source organism: Mycobacterium tuberculosis variant bovis BCG str. Pasteur 1173P2
HLA-B*27:03 = assay: as above; details: source organism: Mycobacterium tuberculosis variant bovis BCG str. Pasteur 1173P2
HLA-A*29:02 = assay: as above; details: source organism: Mycobacterium tuberculosis variant bovis BCG str. Pasteur 1173P2
HLA-B*57:01 [15] = assay: as above; details: source organism: Mycobacterium tuberculosis variant bovis BCG str. Pasteur 1173P2
HLA-A*24:03 [16] = assay: as above; details: source organism: Mycobacterium tuberculosis variant bovis BCG str. Pasteur 1173P2
HLA-B*46:01 [17] = assay: as above; details: source organism: Mycobacterium tuberculosis variant bovis BCG str. Pasteur 1173P2
HLA-A*02:19 = assay: as above; details: source organism: Mycobacterium tuberculosis variant bovis BCG str. Pasteur 1173P2
HLA-A*03:01 [18] = assay: as above; details: source organism: Mycobacterium tuberculosis variant bovis BCG str. Pasteur 1173P2
HLA-B*15:01 [19] = assay: as above; details: source organism: Mycobacterium tuberculosis variant bovis BCG str. Pasteur 1173P2
HLA-A*69:01 [20] = assay: as above; details: source organism: Mycobacterium tuberculosis variant bovis BCG str. Pasteur 1173P2
[21] = source organism: Escherichia coli O157:H7
[22] = source organism: West Nile virus
[23] = source organism: Pseudomonas aeruginosa
[24] = source organism: Pseudomonas putida
[25] = source organism: Mycobacterium tuberculosis variant bovis BCG str. Pasteur 1173P2
[26] = source organism: Giardia lamblia ATCC 50803
[27] = source organism: Yersinia pestis

Sequence: ERSWNSGYDW
Kd (HLA-B*58:01 [1]; source organism: Dengue virus 1 Brazil/97-11/1997): 0.0956 µM
Kd (HLA-B*44:02 [2]): 0.856 µM

Kd (HLA-A*11:01; [21]): 2.56 µM
Kd (HLA-B*27:05; [21]): ≥ 20 µM
Kd (HLA-B*07:02; [21]): ≥ 20 µM
Kd (HLA-B*08:01; [21]): ≥ 20 µM
Kd (HLA-B*58:01 [3]; [21]): 4.05 µM
Kd (HLA-A*24:03 [4]; [21]): ≥ 20 µM
Kd (HLA-A*31:01; [21]): ≥ 20 µM
Kd (HLA-B*40:01; [21]): ≥ 20 µM
Kd (HLA-B*44:02 [5]; [21]): ≥ 20 µM
Kd (HLA-A*01:01; [21]): 0.535 µM
Kd (HLA-B*35:01): 0.861 µM
Kd (HLA-A*30:01; [21]): 2.13 µM
Kd (HLA-A*26:01 [6]; [21]): 0.205 µM
Kd (HLA-A*03:01 [7]; [21]): 3.25 µM
Kd (HLA-A*02:01; [21]): ≥ 20 µM
Kd (HLA-B*15:01 [8]; [21]): 0.108 µM
Kd (HLA-A*69:01 [9]; [21]): ≥ 20 µM
Sequence: ITAGYNRYY

Sequence: KHVQRIETW
Kd (HLA-B*58:01 [1]; source organism: Dengue virus 2 Jamaica/1409/1983): 0.145 µM

Sequence: LASAILNAHK
Kd (HLA-B*58:01 [1]; source organism: Dengue virus 4 Dominica/814669/1981): 3.46 µM

Sequence: LYAVTTAVL
Kd (HLA-B*18:01 [10]): ≥ 20 µM
Kd (HLA-B*27:05; [22]): ≥ 20 µM
Kd (HLA-B*58:01 [3]; [22]): ≥ 20 µM
Kd (HLA-B*48:01): ≥ 20 µM
Kd (HLA-B*57:01 [11]): ≥ 20 µM
Kd (HLA-A*31:01; [22]): ≥ 20 µM
Kd (HLA-B*40:01; [22]): ≥ 20 µM
Kd (HLA-B*44:02 [5]; [22]): ≥ 20 µM
Kd (HLA-A*01:01; [22]): ≥ 20 µM
Kd (HLA-A*30:01; source organism: West Nile virus strain PTRoxo): ≥ 20 µM
Kd (HLA-B*46:01 [12]): ≥ 20 µM
Kd (HLA-A*03:01 [7]; [22]): ≥ 20 µM
Kd (HLA-B*15:01 [8]; [22]): ≥ 20 µM
Kd (HLA-A*69:01 [9]; [22]): ≥ 20 µM
Kd (HLA-B*39:01; [22]): 0.459 µM
Kd (HLA-A*26:01 [13]; [22]): ≥ 20 µM

Kd (HLA-A*11:01; [23]): 0.0673 µM
Kd (HLA-B*27:05; [24]): ≥ 20 µM
Kd (HLA-B*07:02; [24]): ≥ 20 µM
Kd (HLA-B*08:01; [24]): ≥ 20 µM
Kd (HLA-B*58:01 [3]; [24]): ≥ 20 µM
Kd (HLA-A*24:03 [4]; [24]): ≥ 20 µM
Kd (HLA-B*40:01; [24]): ≥ 20 µM
Kd (HLA-A*01:01; [24]): ≥ 20 µM
Kd (HLA-A*30:01; [23]): 2.1 µM
Kd (HLA-A*26:01 [6]; [24]): ≥ 20 µM
Kd (HLA-A*03:01 [7]; [24]): ≥ 20 µM
Kd (HLA-A*02:01; [24]): ≥ 20 µM
Kd (HLA-B*15:01 [8]; [24]): ≥ 20 µM
Kd (HLA-A*69:01 [9]; [24]): ≥ 20 µM
Sequence: NWDWGVFFK

Sequence: RLAPEPVYT
Kd (HLA-B*15:17): ≥ 20 µM
Kd (HLA-B*39:01; [25]): ≥ 20 µM
Kd (HLA-B*51:01): ≥ 20 µM
Kd (HLA-B*18:01 [14]): ≥ 20 µM
Kd (HLA-A*68:02): ≥ 20 µM
Kd (HLA-B*27:03): ≥ 20 µM
Kd (HLA-A*29:02): 3 µM
Kd (HLA-B*57:01 [15]): ≥ 20 µM
Kd (HLA-A*24:03 [16]): ≥ 20 µM
Kd (HLA-A*26:01 [13]; [25]): ≥ 20 µM
Kd (HLA-B*46:01 [17]): ≥ 20 µM
Kd (HLA-A*02:19): 0.0932 µM
Kd (HLA-A*03:01 [18]): ≥ 20 µM
Kd (HLA-B*15:01 [19]): ≥ 20 µM
Kd (HLA-A*69:01 [20]): ≥ 20 µM

Sequence: TAAVLLLITH
Kd (HLA-B*58:01 [1]; source organism: Dengue virus 3 Martinique/1243/1999): 0.751 µM

Sequence: TTIEDILPK
Kd (HLA-A*11:01; [26]): 0.0092 µM
Kd (HLA-B*27:05; [26]): ≥ 20 µM
Kd (HLA-B*07:02; [26]): ≥ 20 µM
Kd (HLA-B*08:01; [26]): ≥ 20 µM
Kd (HLA-B*58:01 [3]; [26]): ≥ 20 µM
Kd (HLA-A*24:03 [4]; [26]): ≥ 20 µM
Kd (HLA-A*31:01; [26]): 2.09 µM
Kd (HLA-B*40:01; [26]): ≥ 20 µM
Kd (HLA-B*44:02 [5]; [26]): ≥ 20 µM
Kd (HLA-A*01:01; [26]): ≥ 20 µM
Kd (HLA-A*30:01; [26]): 0.471 µM
Kd (HLA-A*26:01 [6]; [26]): 0.478 µM
Kd (HLA-A*03:01 [7]; [26]): 2.84 µM
Kd (HLA-A*02:01; [26]): ≥ 20 µM
Kd (HLA-B*15:01 [8]; [26]): ≥ 20 µM
Kd (HLA-A*69:01 [9]; [26]): ≥ 20 µM

Sequence: YGLGSTPLY
Kd (HLA-A*11:01; [27]): ≥ 20 µM
Kd (HLA-B*27:05; [27]): ≥ 20 µM
Kd (HLA-B*07:02; [27]): ≥ 20 µM
Kd (HLA-B*08:01; [27]): ≥ 20 µM
Kd (HLA-B*58:01 [3]; [27]): 10.4 µM
Kd (HLA-A*31:01; [27]): ≥ 20 µM
Kd (HLA-B*40:01; [27]): ≥ 20 µM
Kd (HLA-B*44:02 [5]; [27]): ≥ 20 µM
Kd (HLA-A*01:01; [27]): 14.1 µM
Kd (HLA-A*30:01; [27]): 3.59 µM
Kd (HLA-A*26:01 [6]; [27]): 5.87 µM
Kd (HLA-A*03:01 [7]; [27]): ≥ 20 µM
Kd (HLA-A*02:01; [27]): ≥ 20 µM
Kd (HLA-B*15:01 [8]; [27]): 0.332 µM
Kd (HLA-A*69:01 [9]; [27]): ≥ 20 µM
